Source: paper PMC11772321

Target: T1, His-OsNAC2 (Oryza sativa, UniProt Q7XUV6 1-343)
T1 sequence: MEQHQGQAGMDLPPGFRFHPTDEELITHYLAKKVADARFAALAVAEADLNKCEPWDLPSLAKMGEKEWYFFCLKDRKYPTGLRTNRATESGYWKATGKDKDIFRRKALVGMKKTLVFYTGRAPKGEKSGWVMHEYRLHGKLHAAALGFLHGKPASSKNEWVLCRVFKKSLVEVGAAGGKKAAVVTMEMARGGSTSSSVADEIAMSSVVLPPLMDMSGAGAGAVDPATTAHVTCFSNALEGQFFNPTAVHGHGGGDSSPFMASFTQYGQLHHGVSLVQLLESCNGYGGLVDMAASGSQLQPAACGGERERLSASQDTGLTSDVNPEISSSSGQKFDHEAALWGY
Test: EMSA

B1: probe-OsNAC2-59 (MITE in OsSCE1a promoter) (dsDNA)
DNA 1: TCCTTTGAGTCTATCTCTCTCATCCAATTCTTGTGTTTTTCCTGTGGTTCAATCAAACG
DNA 2: CGTTTGATTGAACCACAGGAAAAACACAAGAATTGGATGAGAGAGATAGACTCAAAGGA
binding result: binds
